{"source": "IntAct's records for PubMed 29039417", "parents": {"B1": {"name": "BBSome-interacting protein 1 (Homo sapiens), A8MTZ0 (parent)", "chain": "MLKAAAKRPELSGKNTISNNSDMAEVKSMFREVLPKQGPLFVEDIMTMVLCKPKLLPLKSLTLEKLEKMHQAAQNTIRQQEMAEKDQRQITH", "partner": "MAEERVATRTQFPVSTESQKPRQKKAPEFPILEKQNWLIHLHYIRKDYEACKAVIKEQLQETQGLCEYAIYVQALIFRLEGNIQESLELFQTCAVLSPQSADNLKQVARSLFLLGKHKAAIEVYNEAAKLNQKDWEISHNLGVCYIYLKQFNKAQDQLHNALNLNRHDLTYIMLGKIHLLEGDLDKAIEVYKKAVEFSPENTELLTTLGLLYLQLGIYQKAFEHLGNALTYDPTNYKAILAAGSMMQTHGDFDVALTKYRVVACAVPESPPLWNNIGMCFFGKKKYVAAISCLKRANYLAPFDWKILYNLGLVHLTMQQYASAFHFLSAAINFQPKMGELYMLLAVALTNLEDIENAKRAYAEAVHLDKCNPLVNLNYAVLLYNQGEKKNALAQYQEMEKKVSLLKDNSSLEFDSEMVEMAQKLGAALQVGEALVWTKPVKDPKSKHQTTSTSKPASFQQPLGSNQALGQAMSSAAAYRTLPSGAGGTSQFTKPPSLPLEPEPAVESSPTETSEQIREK"}}}
{"variants_of": "B1", "details": "with bbs4_human BBS4, Q96RK4"}
{"variant": "F41A", "effect of a mutation on the interaction": "with no effect"}
{"variant": "F41E", "effect of a mutation on the interaction": "with no effect"}
{"variant": "I45E", "effect of a mutation on the interaction": "with no effect"}
{"variant": "I45K", "effect of a mutation on the interaction": "with no effect"}
{"variant": "I45A", "effect of a mutation on the interaction": "with no effect"}
{"variant": "K54Y", "effect of a mutation on the interaction": "disrupting interaction strength"}
{"variant": "K54A", "effect of a mutation on the interaction": "with no effect"}
{"variant": "K54E", "effect of a mutation on the interaction": "with no effect"}
{"variant": "K54T", "effect of a mutation on the interaction": "disrupting interaction strength"}
{"variant": "M48K", "effect of a mutation on the interaction": "with no effect"}
{"variant": "M48E", "effect of a mutation on the interaction": "with no effect"}
{"variant": "M48A", "effect of a mutation on the interaction": "with no effect"}
{"variant": "M46K", "effect of a mutation on the interaction": "with no effect"}
{"variant": "M46E", "effect of a mutation on the interaction": "with no effect"}
{"variant": "M46A", "effect of a mutation on the interaction": "with no effect"}
{"variant": "M46F", "effect of a mutation on the interaction": "disrupting interaction strength"}
{"variant": "D22A", "effect of a mutation on the interaction": "with no effect"}
{"variant": "D22K", "effect of a mutation on the interaction": "with no effect"}
{"variant": "D22E", "effect of a mutation on the interaction": "with no effect"}
{"variant": "K14E", "effect of a mutation on the interaction": "with no effect"}
{"variant": "K14A", "effect of a mutation on the interaction": "with no effect"}
{"variant": "K14L", "effect of a mutation on the interaction": "disrupting interaction strength"}
{"variant": "M23A", "effect of a mutation on the interaction": "with no effect"}
{"variant": "M23E", "effect of a mutation on the interaction": "with no effect"}
{"variant": "M23K", "effect of a mutation on the interaction": "with no effect"}
{"variant": "P53K", "effect of a mutation on the interaction": "with no effect"}
{"variant": "P53E", "effect of a mutation on the interaction": "with no effect"}
{"variant": "P53A", "effect of a mutation on the interaction": "with no effect"}
{"variant": "T47K", "effect of a mutation on the interaction": "with no effect"}
{"variant": "T47A", "effect of a mutation on the interaction": "with no effect"}
{"variant": "T47E", "effect of a mutation on the interaction": "with no effect"}
{"variant": "T47R", "effect of a mutation on the interaction": "disrupting interaction strength"}
{"variant": "F30K", "effect of a mutation on the interaction": "with no effect"}
{"variant": "F30A", "effect of a mutation on the interaction": "with no effect"}
{"variant": "F30E", "effect of a mutation on the interaction": "with no effect"}
{"variant": "F30S", "effect of a mutation on the interaction": "disrupting interaction strength"}
{"variant": "L40A", "effect of a mutation on the interaction": "with no effect"}
{"variant": "L40K", "effect of a mutation on the interaction": "with no effect"}
{"variant": "L40E", "effect of a mutation on the interaction": "with no effect"}
{"variant": "L34R", "effect of a mutation on the interaction": "disrupting interaction strength"}
{"variant": "L34A", "effect of a mutation on the interaction": "disrupting interaction strength"}
{"variant": "L34H", "effect of a mutation on the interaction": "disrupting interaction strength"}
{"variant": "L34D", "effect of a mutation on the interaction": "disrupting interaction strength"}
{"variant": "L34K", "effect of a mutation on the interaction": "with no effect"}
{"variant": "L34P", "effect of a mutation on the interaction": "disrupting interaction strength"}
{"variant": "L34E", "effect of a mutation on the interaction": "with no effect"}
{"variant": "V26A", "effect of a mutation on the interaction": "with no effect"}
{"variant": "V26K", "effect of a mutation on the interaction": "with no effect"}
{"variant": "V26E", "effect of a mutation on the interaction": "with no effect"}
{"variant": "N15E", "effect of a mutation on the interaction": "with no effect"}
{"variant": "N15A", "effect of a mutation on the interaction": "with no effect"}
{"variant": "N15K", "effect of a mutation on the interaction": "with no effect"}
{"variant": "L50E", "effect of a mutation on the interaction": "with no effect"}
{"variant": "L50K", "effect of a mutation on the interaction": "with no effect"}
{"variant": "L50A", "effect of a mutation on the interaction": "with no effect"}
{"variant": "L56A", "effect of a mutation on the interaction": "with no effect"}
{"variant": "L56F", "effect of a mutation on the interaction": "disrupting interaction strength"}
{"variant": "L56E", "effect of a mutation on the interaction": "with no effect"}
{"variant": "P9A", "effect of a mutation on the interaction": "with no effect"}
{"variant": "P9K", "effect of a mutation on the interaction": "with no effect"}
{"variant": "P9E", "effect of a mutation on the interaction": "with no effect"}
{"variant": "N19A", "effect of a mutation on the interaction": "with no effect"}
{"variant": "N19K", "effect of a mutation on the interaction": "with no effect"}
{"variant": "N19E", "effect of a mutation on the interaction": "with no effect"}
{"variant": "V42K", "effect of a mutation on the interaction": "with no effect"}
{"variant": "V42E", "effect of a mutation on the interaction": "with no effect"}
{"variant": "V42A", "effect of a mutation on the interaction": "with no effect"}
{"variant": "C51S", "effect of a mutation on the interaction": "disrupting interaction strength"}
{"variant": "C51E", "effect of a mutation on the interaction": "with no effect"}
{"variant": "C51K", "effect of a mutation on the interaction": "with no effect"}
{"variant": "C51A", "effect of a mutation on the interaction": "with no effect"}
{"variant": "L11K", "effect of a mutation on the interaction": "with no effect"}
{"variant": "L11E", "effect of a mutation on the interaction": "with no effect"}
{"variant": "L11A", "effect of a mutation on the interaction": "with no effect"}
{"variant": "E32K", "effect of a mutation on the interaction": "disrupting interaction strength"}
{"variant": "E32A", "effect of a mutation on the interaction": "with no effect"}
{"variant": "S21E", "effect of a mutation on the interaction": "with no effect"}
{"variant": "S21A", "effect of a mutation on the interaction": "with no effect"}
{"variant": "S21K", "effect of a mutation on the interaction": "with no effect"}
{"variant": "A6E", "effect of a mutation on the interaction": "with no effect"}
{"variant": "A6K", "effect of a mutation on the interaction": "with no effect"}
{"variant": "L2A", "effect of a mutation on the interaction": "with no effect"}
{"variant": "L2K", "effect of a mutation on the interaction": "with no effect"}
{"variant": "L2E", "effect of a mutation on the interaction": "with no effect"}
{"variant": "M29E", "effect of a mutation on the interaction": "with no effect"}
{"variant": "M29F", "effect of a mutation on the interaction": "disrupting interaction strength"}
{"variant": "M29A", "effect of a mutation on the interaction": "with no effect"}
{"variant": "M29K", "effect of a mutation on the interaction": "with no effect"}
